The source of these data is patent US20260193335A1 (ZOETIS SERVICES, published 2026).

Residue numbers refer to the chain shown, from its start. Names may count otherwise.

In general, Kd refers to the constant that tells how readily two partners part at equilibrium.

Test [1] concerns the target T1, NGF (target of felinized anti-NGF antibodies mAb2 and mAb3).
T1 chain: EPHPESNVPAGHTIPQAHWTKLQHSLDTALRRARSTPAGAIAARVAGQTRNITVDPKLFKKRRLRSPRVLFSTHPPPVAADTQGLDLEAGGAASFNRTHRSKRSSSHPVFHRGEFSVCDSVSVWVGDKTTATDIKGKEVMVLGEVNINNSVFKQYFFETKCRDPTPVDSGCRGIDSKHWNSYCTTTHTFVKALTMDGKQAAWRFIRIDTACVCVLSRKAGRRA
The test can be described thus: cell-based or functional assay.

The target in test [2] is T1, NGF (target of felinized anti-NGF …). The test can be described thus: SPR Biacore T200, target amine-coupled, 15 C. The procedure: Affinity for each mAb was assessed by Biacore and the IC50 was determined via a suitable cell based potency assay.
Flow cell 1 was used as an internal reference to correct running buffer effects. Antibody binding was measured at 15° C. with a contact time of 250 s and flow rate of 30 μl/min. The dissociation period was 300 s. Regeneration was performed with regeneration buffers (10 mM Glycine pH1.5 and 10 mM NaOH) and flow rate at 20 μl/min for 60 s each. Running/dilution buffer (1×HBS-EP, GE Healthcare, BR-1006-69, 10× including 100 mM HEPES, 150 mM NaCl, 30 mM EDTA and 0.5% v/v surfactant P20, pH7.4, 1:10 in filtered MQ H2O) was used as negative control at the same assay format.
Data were analyzed with Biacore T200 Evaluation software by using the method of double referencing. The resulting curve was fitted with the 1:1 binding model. No differences in binding affinities or IC50 were observed between wild-type and 5434 and 5428 mutant IgGs (Table 1).
Background: SPR reads the build-up and loss of mass on a sensor chip optically.

For test [3], the target named is T2, Feline FcRn (complex of FcRn-α subunit and β-microglobulin, C-terminal His tag) (feline, UniProt A0ABI7ZNY9 23-296; Q5MGS7 21-118).
T2 construct: treated here as one molecule
The test can be described thus: SPR Biacore, FcRn amine-coupled on CM5, pH 6; pH 6; Table 2 run (FcRn amine-coupled on CM5). The procedure:
(§1) Feline FcRn was isolated, prepared and mutant Fc IgGs were assayed against feline FcRn according to Strietzelg et. al. Standard RACE PCR was used to amplify feline FcRn-α subunit and β-microglobulin. FcRn-α subunit and β-microglobulin were co-transfected into HEK 293 cells and the FcRn complex was purified by IMAC affinity purification via the c-terminal His tag. KD's were measured by Biacore 3000 or Biacore T200 (GE Healthcare, Pittsburgh, PA, USA) using a CM5 sensor chip.
(§2) FcRn was immobilized on the surface of the sensor using the standard amine immobilization method to reach the desired surface density. HBS-EP was used as the immobilization running buffer and 10 mM MES; 150 mM NaCl; 0.005% Tween20; 0.5 mg/mL BSA; pH6 and pH7.2 and PBS; 0.005% Tween20; 0.5 mg/mL BSA; pH7.4 were used for method running buffers and titrations. Fc mutant IgGs were flowed over receptor surfaces and affinity was determined using Scrubber2 software analysis (BioLogic Software Pty, Ltd., Campbell, Australia) or T200 evaluation software (Table 2). Blank runs containing buffer only were subtracted out from all runs. Flow cells were regenerated using 50 mM Tris pH8. Runs were performed at 15° C.

Test [4] concerns the target T2, Feline FcRn (complex of FcRn-α subunit …). The test can be described thus: SPR Biacore, biotin-FcRn on SA chip, pH 6; pH 6; Table 5A run (biotin-FcRn on SA chip), ID 88. The procedure: Feline FcRn was isolated, prepared and mutant Fc IgGs were assayed against feline FcRn according to Strietzel et. al., discussed above. Standard PCR was used to amplify feline FcRn-α subunit and β-microglobulin. FcRn-α subunit and β-microglobulin were co-transfected into HEK 293 cells and the FcRn complex was purified by IMAC affinity purification via the c-terminal His tag. FcRn complex was biotin labeled through BirA enzymatic biotinylatoin reaction. KD's were measured by Biacore T200 (GE Healthcare, Pittsburgh, PA, USA) or Biacore 8K (Cytiva, Marlborough, MA, USA) using a SA sensor chip.
FcRn was captured on the surface of the sensor using a modified SA capture method. 10 mM MES; 150 mM NaCl; 0.005% Tween20; 0.5 mg/mL BSA; pH6 was used as capture, method running buffer and titrations. 1×HBS-P, 0.5 mg/mL BSA; pH7.4 was also used for method running buffer and titrations. Fc mutant IgGs were flowed over receptor surfaces and affinity was determined using T200 evaluation software or Biacore Insight Evaluation software. Blank runs containing buffer only were subtracted out from all runs. Flow cells were regenerated using 50 mM Tris pH8 or pH9. Runs were performed at 15° C.

For test [5] the target is unchanged. The test can be described thus: SPR Biacore, FcRn amine-coupled on CM5, pH 7.2; pH 7.2; Table 2 run (FcRn amine-coupled on CM5). The procedure: as §1, §2
Test [6] has the same target. The test can be described thus: SPR Biacore, biotin-FcRn on SA chip, pH 6. The method in brief: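 Runs at 15° C used either pH 6 buffer (10 mM MES, 150 mM NaCl, 0.005% Tween20, 0.5 mg/mL BSA) or pH 7.4 buffer (1×HBS-P, 0.5 mg/mL BSA), with Fc mutant IgGs as analytes. Receptor was biotinylated feline FcRn complex (co-expressed in HEK 293) on an SA chip. Affinities from blank-subtracted SPR data.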

Test [7] has the same target. The test can be described thus: SPR Biacore, FcRn amine-coupled on CM5, pH 6. The procedure: as §1, §2
Test [8] has the same target. Kind of test: SPR Biacore, FcRn amine-coupled on CM5, pH 7.2. Here is the method:
as §1, §2

B1: mAb3 (felinized anti-NGF antibody ZTS-768) WT, feline IgG1a (antibody)
heavy: DVQLVESGGDLVKPGGSLRLTCVASGFTYSNYWMHWVRQAPGKGLQWVARIDPYGGGTKHNEKFKRRFTISRDNAKNTLYLQMNSLKTEDTATYYCVRSGYDYYFDVWGQGTLVTVSSASTTAPSVFPLAPSCGTTSGATVALACLVLGYFPEPVTVSWNSGALTSGVHTFPAVLQASGLYSLSSMVTVPSSRWLSDTFTCNVAHPPSNTKVDKTVRKTDHPPGPKPCDCPKCPPPEMLGGPSIFIFPPKPKDTLSISRTPEVTCLVVDLGPDDSDVQITWFVDNTQVYTAKTSPREEQFNSTYRVVSVLPILHQDWLKGKEFKCKVNSKSLPSPIERTISKAKGQPHEPQVYVLPPAQEELSRNKVSVTCLIKSFHPPDIAVEWEITGQPEPENNYRTTPPQLDSDGTYFVYSKLSVDRSHWQRGNTYTCSVSHEALHSHHTQKSLTQSPGK
light: EIQMTQSPSSLSASPGDRVTITCRASENIYSFLAWYQQKPGKVPKLLIYNANTLAEGVPSRFSGSGSGTDFTLTISSLEPEDAATYYCQHHFGTPFTFGSGTKLEIKRSDAQPSVFLFQPSLDELHTGSASIVCILNDFYPKEVNVKWKVDGVVQNKGIQESTTEQNSKDSTYSLSSTLTMSSTEYQSHEKFSCEVTHKSLASTLVKSFQRSECQRE
notes: The same holds for all IgG1a variants of mAb3; also called mAb3 WT; mAb3 ID No. 88
In the case of B1, the “IC50 (cell based potency assay)” value in test [1] worked out at 0.036 nM. The Kd in test [2] amounted to 0.000582 nM; in test [3], 2.95 nM; in test [4], 26 nM; in test [5] it was 8630 nM.

B2: mAb3 (felinized anti-NGF antibody ZTS-768) S434H, feline IgG1a (antibody)
heavy: B1 heavy with S440H
light: B1 light
notes: also called mAb3 S434H; mAb3 ID No. 00
In the case of B2, the Kd was determined as 2.6 nM in test [6], 0.00132 nM in test [2], 1.02 nM in test [7] and 0.524 nM in test [8].
